From paper PMC5648601

Target: recombinant His-MYC-bHLH-LZ protein
Experiment: BLI

B1: recombinant GST-MKK3 protein (enzyme)
chain: MESPASSQPASMPQSKGKSKRKKDLRISCMSKPPAPNPTPPRNLDSRTFITIGDRNFEVEADDLVTISELGRGAYGVVEKVRHAQSGTIMAVKRIRATVNSQEQKRLLMDLDINMRTVDCFYTVTFYGALFREGDVWICMELMDTSLDKFYRKVLDKNMTIPEDILGEIAVSIVRALEHLHSKLSVIHRDVKPSNVLINKEGHVKMCDFGISGYLVDSVAKTMDAGCKPYMAPERINPELNQKGYNVKSDVWSLGITMIEMAILRFPYESWGTPFQQLKQVVEEPSPQLPADRFSPEFVDFTAQCLRKNPAERMSYLELMEHPFFTLHKTKKTDIAAFVKEILGEDS
Kd: 225 nM
